Data taken from article PMC11897130 (Nature Communications, 2025).

What was measured:
[1] = biological target: human GLT25D1/ColGalT1 (procollagen galactosyltransferase 1), amino acids 30-622, wild type (human) (UniProt Q8NBJ5); experiment: cryo-EM structure
[2] = biological target: the molecule itself; experiment: cryo-EM structure

Molecule | stoichiometry N [1] | stoichiometry N [2]
human GLT25D1/ColGalT1 (procollagen galactosyltransferase 1), amino acids 30-622, wild type (from UniProt Q8NBJ5 30-622) (enzyme) | 2 | 
human LH3/PLOD3 (multifunctional procollagen lysine hydroxylase and glycosyltransferase LH3), wild type (enzyme, N-linked glycans at N63 and N548 (seen in the cryo-EM map)) SDRPRGRDPVNPEKLLVITVATAETEGYLRFLRSAEFFNYTVRTLGLGEEWRGGDVARTVGGGQKVRWLKKEMEKYADREDMIIMFVDSYDVILAGSPTELLKKFVQSGSRLLFSAESFCWPEWGLAEQYPEVGTGKRFLNSGGFIGFATTIHQIVRQWKYKDDDDDQLFYTRLYLDPGLREKLSLNLDHKSRIFQNLNGALDEVVLKFDRNRVRIRNVAYDTLPIVVHGNGPTKLQLNYLGNYVPNGWTPEGGCGFCNQDRRTLPGGQPPPRVFLAVFVEQPTPFLPRFLQRLLLLDYPPDRVTLFLHNNEVFHEPHIADSWPQLQDHFSAVKLVGPEEALSPGEARDMAMDLCRQDPECEFYFSLDADAVLTNLQTLRILIEENRKVIAPMLSRHGKLWSNFWGALSPDEYYARSEDYVELVQRKRVGVWNVPYISQAYVIRGDTLRMELPQRDVFSGSDTDPDMAFCKSFRDKGIFLHLSNQHEFGRLLATSRYDTEHLHPDLWQIFDNPVDWKEQYIHENYSRALEGEGIVEQPCPDVYWFPLLSEQMCDELVAEMEHYGQWSGGRHEDSRLAGGYENVPTVDIHMKQVGYEDQWLQLLRTYVGPMTESLFPGYHTKARAVMNFVVRYRPDEQPSLRPHHDSSTFTLNVALNHKGLDYEGGGCRFLRYDCVISSPRKGWALLHPGRLTHYHEGLPTTWGTRYIMVSFVDP |  | 2
